B1: Azoarcus group I ribozyme (parent)
chain: GUGCCUUGCGCCGGGAAACCACGCAAGGGAUGGUGUCAAAUUCGGCGAAACCUAAGCGCCCGCCCGGGCGUAUGGCAACGCCGAGCCAAGCUUCGGCGCCUGCGCCGAUGAAGGUGUAGAGACUAGACGGCACCCACCUAAGGCAAACGCUAUGGUGAAGGCAUAGUCCAGGGAGUGGCGAAAGUCACACAAACCGG

Variants of: B1
Experiment: reverse-splicing fitness (ratio to wild type); higher = more active; in vitro selection; Mg2+ level not given
Outline: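 An in vitro group I ribozyme library with randomized positions was T7-transcribed and gel-purified. In triplicate, 10 pmol RNA in EPPS pH 7.5 was reacted with 50 pmoles of a 30-nt RNA substrate for 1 h at 37 °C across several added MgCl2 levels (1–48 mM), then stopped with EDTA. Products were reverse transcribed from a substrate-complementary primer, PCR-amplified and sequenced (HiSeq 4000). Fitness is a variant's read proportion after selection over that before, normalised to wild type.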

Variant	reverse-splicing fitness
C82A A111G A120G A145G C150A	0.00972
C82A A111G A120G A145G C150U	0.0145
C82A A111G A120C C169U U176G	0.00535
C82A A111G A120C C169U U176A	0.016
C82A A111G A120C C169U U176C	0.0138
C82A A111G A120C A145C U176G	0.00728
C82A A111G A120C A145U C150U C169A U176A	0.0157
C82A A111G A120C A145U C150U C169A U176G	0.00591
C82A A111G A120C A145U C150U C169A U176C	0.0127
C82A A111G A120G A145C C150G C169A	0.00928
C82A A111G A120G A145C C150G C169G	0.00751
C82A A111G A120G A145C C150G C169U	0.00786
C82A A111G A120C A145G C150U C169A U176A	0.0194
C82A A111G A120C A145G C150U C169A U176G	0.00816
C82A A111G A120C A145G C150U C169A U176C	0.0172
C82A A111G A120C U176A	0.0208
C82A A111G A120C U176G	0.00892
C82A A111G A120C U176C	0.032
C82A A111G A120G A145U C150A C169U U176C	0.0157
C82A A111G A120G A145U C150A C169U U176A	0.0222
C82A A111G A120G A145G C169G U176A	0.0204

Variant	reverse-splicing fitness
C82A A111G A120G A145G C169G U176G	0.00435
C82A A111G A120G A145G C169G U176C	0.0276
C82A A111G A120C A145U C150U C169U U176A	0.0144
C82A A111G A120C A145U C150U C169U U176G	0.00546
C82A A111G A120C A145U C150U C169U U176C	0.0124
C82A A111G A120C A145G C150A C169U U176C	0.0154
C82A A111G A120C A145G C150A C169U U176A	0.0153
C82A A111G A120C A145G C150A C169U U176G	0.00842
C82A A111G A120C C150G	0.0106
C82A A111G A120C C150U	0.0279
C82A A111G A120C C150A	0.0162
C82A A111G A120G A145G C150U C169U U176C	0.0165
C82A A111G A120G A145G C150U C169U U176A	0.0182
C82A A111G A120G A145G C150U C169U U176G	0.00632
C82A A111G A120G A145C C150U	0.0102
C82A A111G A120G A145C C150A	0.0077
C82A A111G A120G A145C C150G	0.00656
C82A A111G A120C A145U C150G C169G U176G	0.00589
C82A A111G A120C A145U C150G C169G U176A	0.00801
C82A A111G A120C A145U C150G C169G U176C	0.00564
C82A A111G A120C A145U C150A C169G U176C	0.0245

Variant	reverse-splicing fitness
C82A A111G A120C A145U C150A C169G U176G	0.00642
C82A A111G A120C A145U C150A C169G U176A	0.0188
C82A A111G A120G A145U C150A C169G U176C	0.0169
C82A A111G A120G A145U C150A C169G U176A	0.0145
C82A A111G A120G A145U C150A C169G U176G	0.00478
C82A A111G A120C A145U C150G	0.011
C82A A111G A120C A145U C150A	0.0115
C82A A111G A120C A145U C150U	0.0296
C82A A111G A120C A145G C150G C169U U176C	0.0117
C82A A111G A120C A145G C150G C169U U176G	0.00802
C82A A111G A120C A145G C150G C169U U176A	0.0129
C82A A111G A120G A145G C169A	0.0101
C82A A111G A120G A145G C169U	0.0111
C82A A111G A120G A145G C169G	0.0122
C82A A111G A120G A145U C150A C169A U176G	0.00585
C82A A111G A120G A145U C150A C169A U176C	0.0121
C82A A111G A120G A145U C150A C169A U176A	0.0161
C82A A111G A120C C150A C169U U176C	0.0133
C82A A111G A120C C150A C169U U176G	0.00938
C82A A111G A120C C150A C169U U176A	0.0162
C82A A111G A120G A145G C169A U176A	0.0226

Variant	reverse-splicing fitness
C82A A111G A120G A145G C169A U176G	0.00461
C82A A111G A120G A145G C169A U176C	0.0254
C82A A111G A120C A145G C150U C169U U176G	0.00671
C82A A111G A120C A145G C150U C169U U176A	0.0141
C82A A111G A120C A145G C150U C169U U176C	0.0148
C82A A111G A120G	0.0164
C82A A111G A120C A145U C150G C169A U176C	0.0114
C82A A111G A120C A145U C150G C169A U176G	0.00597
C82A A111G A120C A145U C150G C169A U176A	0.011
C82A A111G A120C C150G C169U U176A	0.00701
C82A A111G A120C C150G C169U U176C	0.0107
C82A A111G A120C C150G C169U U176G	0.00651
C82A A111G A120C A145G C150G C169G U176A	0.0127
C82A A111G A120C A145G C150G C169G U176C	0.0115
C82A A111G A120C A145G C150G C169G U176G	0.00644
C82A A111G A120C C169A U176G	0.00575
C82A A111G A120C C169A U176A	0.0173
C82A A111G A120C C169A U176C	0.0223
C82A A111G A120C C150A U176C	0.0223
C82A A111G A120C C150A U176A	0.0133
C82A A111G A120C C150A U176G	0.0115
